US20200299341A1 (SOCIETE DE COMMERCIALISATION DES PRODUITS DE LA RECHERCHE …, published 2020)

Molecular target: the molecule itself
Experiment: CD thermal denaturation at 222 nm, 16 uM, homodimer
Description: 16 μM of Mad1*DN, Mad1*DN-KR and/or Max* diluted in Phosphate buffer (50 mM) containing 50 mM KCl and 0.5 mM TCEP were subjected to temperature increase as the dichroic signal corresponding to α-Helical signal (222 nm) was recorded. Individual denaturation curves for each protein was recorded. To compare the heterodimeric complex formation, Mad1*DN or Mad1*DN-KR were mixed with Max* at equimolar concentration (16 μM each) in the same buffer adjusted at 1 mM TCEP. The experimental denaturation curves of the complexes (Mad1*DN/Max* or Mad1DN-KR/Max*) were compared to the summation of the individual curves of each homodimer which correspond to an absence of interaction between the two proteins in solution.

B1: Mad1*DN-KR (Mad1 b-HLH-LZ domain with C75S, E77K, G81R, C111S, D112N) (other)
chain: MSRSTHNEMEKNRRAHLRLSLKKLKRLVPLGPESSRHTTLSLLTKAKLHIKKLEDSNRKAVHQVDQLQREQRHLKRQLEKLGGSGC
notes: Engineered variant of the human Mad1 b-HLH-LZ domain; It forms a homodimer alone and a heterodimer with Max*; also called KR analog of Mad1*DN
- binding result: binds
